The source of these data is patent US6300084A, “Anti-mitotic agent screening process” (The Regents of the University of California, priority 1999, dated 2001).

Test [1] concerns the target bovine microtubules (assembled from bovine tubulin, stabilised with taxol) (bovine). Description: co-sedimentation of in vitro translated Dam1p with taxol-stabilised bovine microtubules; half of Dam1p in the pellet at 5 µM microtubules.
Test [2] has as its system microtubules of wild-type strain DDY898. As to the kind of experiment: Microtubule depolymerization by benomyl in yeast cells, immunofluorescence. In kind it is cell-based. The conditions noted are these: 20 μg/ml benomyl, two hours at 25° C. As for the experimental part: Yeast cells were grown to early log phase in minimal or rich medium. For galactose induction, cells were grown to log phase in medium containing either raffinose or glucose. Cells grown on glucose were washed twice with water and then diluted into medium containing galactose/raffinose. Galactose was added directly to medium containing raffinose. Fixation and immunofluorescence procedures were carried out as described by Drubin et al. (1988). The YOL134 anti-tubulin antibody was used at 1:200 and the anti-Duo1p antibody (preparation described below) at 1:2000. Fluorescein-conjugated anti-heavy chain secondary antisera were obtained from Cappel/Organon Teknika (Malvern, Pa.). To determine whether the localization of Duo1p was dependent on microtubules in vivo, microtubules of wild-type strain DDY898 were depolymerized by the addition of 20 μg/ml benomyl. […] With the elimination of microtubules, Duo1p staining also vanished.

For test [3], the target named is yeast microtubules (yeast). Description: co-sedimentation with microtubules; no increase with more microtubules.
The target of test [4] is bovine microtubules (assembled from bovine tubulin, stabilised with taxol) (bovine). The description is as above.

For the compound in vitro translated Dam1p, the Kd in test [1] was 5 µM.
For the compound `CCCCNC(=O)n1c(NC(=O)OC)nc2ccccc21` [benomyl], the “depolymerization of microtubules (immunofluorescence)” value in test [2] is given as “essentially all of the microtubules were depolymerized”.
With “GST-Duo1p fusion protein purified from yeast (pDD475)”, the percent of the protein bound to microtubules in test [3] and in test [4] was 9% each time.

Usually Kd stands for the constant that tells how readily two partners part at equilibrium. Low readings indicate a tighter complex, high ones a looser complex.
